From patent US20100035825

Tests used:
Ac-KE^217VD-CHO = target: T1, Ac-KE^217VD-CHO
T1 chain: KEVD

Ac-KKPD^105-CHO = target: T2, Ac-KKPD^105-CHO
T2 chain: KKPD

B1: purified recombinant procaspase 8 (human, Alexis Biochemicals) (protein)
chain: SESQTLDKVYQMKSKPRGYCLIINNHNFAKAREKVPKLHSIRDRNGTHLDAGALTTTFEELHFEIKPHDDCTVEQIYEILKIYQLMDHSNMDCFICCILSHGDKGIIYGTDGQEAPIYELTSQFTGLKCPSLAGKPKVFFIQACQGDNYQKGIPVETDSEEQPYLEMDLSSPQTRYIPDEADFLLGMATVNNCVSYRNPAEGTWYIQSLCQSLRERCPRGDDILTILTEVNYEVSNKDDKKNMGKQMPQPTFTLRKKLVFPSD
- in vitro self-activation of caspase 8 (colorimetric substrate, tetrapeptides at 200 µM) (Ac-KE^217VD-CHO): inhibited
- in vitro self-activation of caspase 8 (colorimetric substrate, tetrapeptides at 200 µM) (Ac-KKPD^105-CHO): inhibited
